The text below walks through data of publication PMC9109600.

Substrate in the series: Nc1nc2nc[nH]c2c(=O)[nH]1
In words: purified protein. Particulars: zinc active site.

B1: Guanine deaminase (GDA) (Homo sapiens) (protein)
chain: MCAAQMPPLAHIFRGTFVHSTWTCPMEVLRDHLLGVSDSGKIVFLEEASQQEKLAKEWCFKPCEIRELSHHEFFMPGLVDTHIHASQYSFAGSSIDLPLLEWLTKYTFPAEHRFQNIDFAEEVYTRVVRRTLKNGTTTACYFATIHTDSSLLLADITDKFGQRAFVGKVCMDLNDTFPEYKETTEESIKETERFVSEMLQKNYSRVKPIVTPRFSLSCSETLMGELGNIAKTRDLHIQSHISENRDEVEAVKNLYPSYKNYTSVYDKNNLLTNKTVMAHGCYLSAEELNVFHERGASIAHCPNSNLSLSSGFLNVLEVLKHEVKIGLGTDVAGGYSYSMLDAIRRAVMVSNILLINKVNEKSLTLKEVFRLATLGGSQALGLDGEIGNFEVGKEFDAILINPKASDSPIDLFYGDFFGDISEAVIQKFLYLGDDRNIEEVYVGGKQVVPFSSSV
As for B1, the Km was determined as 12 ± 9 µM.
